Results from patent US10047138.

Tests used:
[1] = target: ICOS-CD3 III fusion protein (human); test: cell-based or functional assay
[2] = target: full length human wild type ICOS (human) (UniProt Q9Y6W8); test: cell-based or functional assay
UniProt Q9Y6W8, sequence (Q9Y6W8 21-199): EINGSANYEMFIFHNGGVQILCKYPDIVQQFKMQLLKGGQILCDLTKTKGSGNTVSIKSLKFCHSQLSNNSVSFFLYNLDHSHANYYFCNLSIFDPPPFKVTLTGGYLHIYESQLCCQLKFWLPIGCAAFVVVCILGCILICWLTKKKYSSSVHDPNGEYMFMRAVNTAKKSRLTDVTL

ICOS-CD3 III fusion protein (human), sequence (chain, as listed by the source limits assumed): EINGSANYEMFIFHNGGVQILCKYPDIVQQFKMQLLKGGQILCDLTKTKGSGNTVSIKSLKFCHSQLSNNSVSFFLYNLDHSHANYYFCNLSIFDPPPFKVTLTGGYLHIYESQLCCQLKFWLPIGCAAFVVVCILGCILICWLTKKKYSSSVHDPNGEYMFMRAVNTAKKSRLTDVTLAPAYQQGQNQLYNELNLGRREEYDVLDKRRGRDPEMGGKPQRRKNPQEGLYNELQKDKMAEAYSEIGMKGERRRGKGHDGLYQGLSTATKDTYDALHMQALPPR

IL-2 secretion (RLU), difference between clusters 1 (anti-CD3 alone) and 3 (anti-CD3 plus B7RP1-Fc) [1]: > 200 fold | IL-2 secretion by Jurkat cells, 2.5 µg/mL anti-CD3 antibody plus 50 µg/mL B7RP1-Fc against anti-CD3 antibody alone [1]: > 170 fold | IL-2 secretion (RLU), difference between clusters 1 (anti-CD3 alone) and 3 (anti-CD3 plus B7RP1-Fc) [2]: < 8 fold | IL-2 secretion by Jurkat cells, 2.5 µg/mL anti-CD3 antibody plus 50 µg/mL B7RP1-Fc against anti-CD3 antibody alone [2]: < 17 fold
Substance: B7RP1-Fc protein (from UniProt O75144 19-253) (Fc fusion)
